Laboratory results: PMC9026390

What was measured:
[1] = target: VvGH17 C-terminal-truncated mutant ΔC466 (Vibrio vulnificus); test: native gel or EMSA; blue native PAGE, 5–10% gradient gel, 4 °C, 150 V for 3.5 h; 50 mM tricine, 15 mM bis-Tris/HCl, pH 7; cathode buffer with 0.02% Coomassie blue G250; monomer to trimer
[2] = target: glycoside hydrolase family 17 β-1,3-glucanase of Vibrio vulnificus (VvGH17), wild type (Vibrio vulnificus); test: as above

Row | stoichiometry N [2] | Substance | stoichiometry N [1]
1 | – | VvGH17 C-terminal-truncated mutant ΔC466 (domain or fragment) | 3
2 | 3 | glycoside hydrolase family 17 β-1,3-glucanase of Vibrio vulnificus (VvGH17), wild type (enzyme) | –
